According to US20170173114A1, “METHODS AND COMPOSITIONS FOR INDUCTION OF UCP1 EXPRESSION” (Joslin Diabetes Center, Inc., priority 2014, published 2017):

Experiments:
Format in all cases: cell-based, murine
UCP1 = UCP1 mRNA expression (Q-RT-PCR) in WT-1 brown preadipocytes; conditions: for expression of UCP1: 200 ng/mL with insulin and T3, three days
Protocol: (§1) Total RNA was isolated with QIAzol lysis reagent (Qiagen, Valencia, Calif.) and purified by RNeasy Mini columns (Qiagen) following the manufacture's instructions. cDNA was prepared from total RNA using the Advantage RT-PCR kit (BD Biosciences, Palo Alto, Calif.) according to manufacturer's instructions. Diluted cDNA was used in a PCR reaction with SYBR Green Master Mix (Applied Biosystems, Foster City, Calif.) and primers specifically designed for detection of the gene of interest. PCR reactions were run in duplicate for each sample and quantitated in the ABI Sequence Detection System (Applied Biosystems). Data were expressed as arbitrary units after normalization to levels of expression of internal controls for each sample. Sequences of primers for specific genes are each obtained from the published literature or designed using publically available gene sequence databases. Unless otherwise indicated, gene expression data described in the examples below was obtained using QPCR.
The effect of FGF6 on differentiation of WT-1 murine brown preadipocytes was also examined. WT-1 cells can be induced to undergo brown adipocyte differentiation, characterized by lipid accumulation and expression of adipogenic and brown fat markers, as described above (Klein et al. (1999) J Biol Chem 274:34795; Tseng et al. (2005) Nat Cell Biol 7:601). WT-1 cells were treated with FGF6 in growth media (DMEM+10% FBS), a vehicle control (“control” or “C” referred to in FIGS. 3A-D), or induction media (“induction” or “I” referred to in FIGS. 3A-D) as described above for seven days. Following the treatment, cells were examined for the color of the culture media in combination with oil Red O staining, expression of adipogenic markers, expression of brown fat markers, immunofluorescent staining of cells with UCP1 and DPAI, and Western blot analysis to determine the presence of UCP1 and β-tubulin. The results are described in FIGS. 3A to 3D.
UCP1 mRNA expression in brown adipocyte cells was determined at FGF6 concentrations ranging from 0 to 300 ng/ml in the absence of induction cocktail.
In order to determine the length of time necessary to induce UCP1 expression upon exposure to of cells to FGF6, an experiment was performed whereby FGF6 was administered to brown preadipocytes at a concentration of 200 ng/ml and UCP1 expression was determined. FGF21 and a control were also used in the time course experiment. FGF21, a member of the endocrine FGF ligands that has been implicated in the browning of white fat (Fisher F. M. et al., Genes Dev. 26:271-281, 2012). […] FGF6 could acutely induce a significant increase of UCP1 expression as early as 4 hours after a 200 ng/ml dose, as described in FIG. 4B. At 24 hours, the fold-induction of UCP1 mRNA by FGF6 reached 700-fold higher than the untreated cells, as described in FIG. 4B.
To assess FGF6's role in the regulation of mitochondrial activity, FGF6 was stably expressed in WT-1 brown preadipocytes and 3T3-F442A white preadipocytes. Stable cells were generated by viral infection followed by drug selection.
FGF2, FGF6 and FGF9 were used at a dosage of 50 ng/mL, 100 ng/mL, 200 ng/mL or 300 ng/mL. FGF21 was used at the dosage of 50 ng/ml and 500 ng/mL. The concentration of BMP7 was 3.3 nM. RNA was isolated and UCP1 and PPARγ expression levels were evaluated by quantitative reverse transcription polymerase chain reaction (Q-RT-PCR) analysis after 24 hours (i.e., 1 day) (FIG. 14A), 2 days (FIG. 14B), 5 days (FIG. 14C) and 7 days (FIG. 14D) of treatment. All experiments were performed triplicate and the data are presented as mean+/−SEM.
FGF2, FGF6 and FGF9 were used at a dosage of 200 ng/mL. FGF21 was used at a dosage of 500 ng/mL. The concentration of BMP7 was 3.3 nM. mRNA was isolated and UCP1 and PPARγ expression levels were evaluated by quantitative reverse transcription polymerase chain reaction (Q-RT-PCR) analysis after 24 hours (i.e., 1 day), 2 days, 5 days and 7 days of treatment (FIG. 15). […]

PTGS2 (COX2) = experiment: PTGS2 mRNA / COX2 protein expression in WT-1 brown preadipocytes; conditions: for PTGS2 mRNA expression relative to the control: 200 ng/mL with insulin and T3, three days
Protocol: as §1
Cells were harvested in lysis buffer (50 mM HEPES, 137 mM NaCl, 1 mM MgCl2, 1 mM CaCl2, 10 mM Na2P2O7, 10 mM NaF, 2 mM EDTA, 10% glycerol, 1% Igepal CA-630, 2 mM vanadate, 10 μg/ml of leupeptin, 10 μg/ml of aprotinin, 2 mM phenylmethylsulfonyl fluoride; pH 7.4). After lysis, lysates were clarified by centrifugation at 12,000×g for 20 min at 4° C., the amount of protein in the supernatants was determined by the Bradford Protein Assay (Bio-Rad Laboratories, Hercules, Calif.). Proteins were directly solubilized in Laemmli sample buffer. Equal amounts of lysates were separated by sodium dodecyl sulfate-polyacrylamide gel electrophoresis and transferred to Immobolin-P membranes. Membranes were blocked overnight at 4° C. and incubated with the indicated antibody for 2 hours at room temperature. Specifically bound primary antibodies were detected with peroxidase-coupled secondary antibody and enhanced chemiluminescence (ECL, Amersham Biosciences, Piscataway, N.J.).
To determine if FGF4, FGF5, FGF6, FGF10, FGF16, FGF17, FGF18 or FGF20 induced either UCP1 mRNA or PTGS2 mRNA expression, murine brown preadipocyte WT-1 cells (Tseng et al., Nat. Cell. Biol. (2005) 7(6):601-611) were grown in growth media (DMEM-high glucose+10% FBS) supplemented with FGF4, FGF5, FGF6, FGF10, FGF16, FGF17, FGF18, FGF20 or buffer (control) in combination with insulin (20 nM) and triidothyronine (T3, 1 nM) for three days. All FGFs were used at a dosage of 200 ng/mL. mRNA was isolated and UCP1 and PTGS2 gene expression levels were evaluated by quantitative reverse transcription polymerase chain reaction (Q-RT-PCR) analysis. All experiments were performed triplicate and the data are presented as mean+/−SEM.
To determine if FGF1 or FGF10 induce UCP1 mRNA expression or PTGS2 mRNA expression, murine brown preadipocyte WT-1 cells (Tseng et al., Nat. Cell. Biol. (2005) 7(6):601-611) were grown in growth media (DMEM-high glucose+10% FBS) supplemented with FGF1, FGF10 or vehicle (control) in combination with insulin (20 nM) and triidothyronine (T3, 1 nM) for three days. FGF1 and FGF10 were used at a dosage of 50 ng/mL, 100 ng/mL or 300 ng/mL. mRNA was isolated and UCP1 and PTGS2 expression levels were evaluated by quantitative reverse transcription polymerase chain reaction (Q-RT-PCR) analysis. All experiments were performed triplicate and the data are presented as mean+/−SEM.
To test the role of specific prostaglandins (PGs) in activating UCP1 expression, WT-1 brown adipocytes were pretreated with PGE2, PGI2 and FGF6 for 24 hours. mRNA expression levels of UCP1, PTGS2, LDHA, PDK1 and PKM2 were then measured.

UCP1 and PTGS2 = UCP1 and PTGS2 mRNA in WT-1 cells undergoing adipocyte differentiation; conditions: after induction media; 200 ng/mL FGF or 3.3 nM BMP7, 2 days
Protocol: In a separate experiment investigating the ability of FGF proteins to induce UCP1 expression in cells undergoing adipocyte differentiation, WT-1 preadipocyte cells were differentiated by culturing in growth media supplemented with insulin (20 nM) and triiodothyronine (T3, 1 nM) for 3 days, followed by incubation in an induction media (growth medium supplemented 20 nM insulin, 1 nM T3, 0.5 mM isobutyl-methylxanthine, 5 μM dexamethasone) for 2 days. The cell were then exposed to BMP7 (3.3 nM) or 200 ng/mL of FGF2, FGF6 or, FGF9 in growth media supplemented with insulin (20 nM) and triodothyronine (T3, 1 nM) for 2 additional days. Cells were harvested and UCP1 and PTGS2 mRNA expression levels were determined according to the quantitative RT-PCR assay described above. Experiments were performed in triplicate and the data presented as mean+/−SEM.

[1] = 50, 100 or 300 ng/mL with insulin and T3, three days, FGF1 effect at 300 ng/ml
[2] = FGF21 50 and 500 ng/mL, BMP7 3.3 nM, with insulin and T3
[3] = 50 ng/mL and 200 ng/mL with insulin and T3, three days

B1: FGF10: fibroblast growth factor 10, keratinocyte growth factor 2 (protein, listed as Homo sapiens)
chain: MWKWILTHCASAFPHLPGCCCCCFLLLFLVSSVPVTCQALGQDMVSPEATNSSSSSFSSPSSAGRHVRSYNHLQGDVRWRKLFSFTKYFLKIEKNGKVSGTKKENCPYSILEITSVEIGVVAVKAINSNYYLAMNKKGKLYGSKEFNNDCKLKERIEENGYNTYASFNWQHNGRQMYVALNGKGAPRRGQKTRRKNTSAHFLPMVVHS
B1 was tested, and the “expression of UCP1” value (UCP1) was “not induced”, the “UCP1 mRNA expression” value (UCP1; [1]) was “did not induce expression” and the “PTGS2 mRNA expression” value (PTGS2 (COX2); [1]) was “did not induce expression”.

B2: BMP7: bone morphogenetic protein 7, rhBMP7 provided by Stryker Regenerative Medicine (protein, UniProt P18075 293-431, looked up)
Bone morphogenetic protein 7: STGSKQRSQNRSKTPKNQEALRMANVAENSSSDQRQACKKHELYVSFRDLGWQDWIIAPEGYAAYYCEGECAFPLNSYMNATNHAIVQTLVHFINPETVPKPCCAPTQLNAISVLYFDDSSNVILKKYRNMVVRACGCH
In the case of B2, the “PTGS2 mRNA expression in cells undergoing adipocyte differentiation” value (UCP1 and PTGS2) is reported as “minimal levels”, the “UCP1 mRNA expression in cells undergoing adipocyte differentiation” value (UCP1 and PTGS2) is reported as “minimal levels” and the “UCP1 expression level at day 7” value (UCP1; [2]) is reported as “only minimal amounts”. For the same molecule, the “UCP1 expression level at days 1, 2 and 5” value (UCP1; [2]) was “did not express detectable amounts of UCP1”.

B3: FGF4: fibroblast growth factor 4, recombinant human, R&D Systems (protein, listed as Homo sapiens)
chain: MSGPGTAAVALLPAVLLALLAPWAGRGGAAAPTAPNGTLEAELERRWESLVALSLARLPVAAQPKEAAVQSGAGDYLLGIKRLRRLYCNVGIGFHLQALPDGRIGGAHADTRDSLLELSPVERGVVSIFGVASRFFVAMSSKGKLYGSPFFTDECTFKEILLPNNYNAYESYKYPGMFIALSKNGKTKKGNRVSPTMKVTHFLPRL
B3 was tested, and the “UCP1 mRNA expression” value (UCP1; [3]) was “high levels of UCP1 mRNA expression” and the “PTGS2 mRNA expression relative to the control” value (PTGS2 (COX2)) was “increased”.

B4: FGF5: fibroblast growth factor 5, recombinant human, R&D Systems (protein, listed as Homo sapiens)
chain: MSLSFLLLLFFSHLILSAWAHGEKRLAPKGQPGPAATDRNPRGSSSRQSSSSAMSSSSASSSPAASLGSQGSGLEQSSFQWSPSGRRTGSLYCRVGIGFHLQIYPDGKVNGSHEANMLSVLEIFAVSQGIVGIRGVFSNKFLAMSKKGKLHASAKFTDDCKFRERFQENSYNTYASAIHRTEKTGREWYVALNKRGKAKRGCSPRVKPQHISTHFLPRFKQSEQPELSFTVTVPEKKKPPSPIKPKIPLSAPRKNTNSVKYRLKFRFG
For B4, the “expression of UCP1” value (UCP1) was “not induced”.

B5: FGF17: fibroblast growth factor 17 (protein, listed as Homo sapiens)
chain: MGAARLLPNLTLCLQLLILCCQTQGENHPSPNFNQYVRDQGAMTDQLSRRQIREYQLYSRTSGKHVQVTGRRISATAEDGNKFAKLIVETDTFGSRVRIKGAESEKYICMNKRGKLIGKPSGKSKDCVFTEIVLENNYTAFQNARHEGWFMAFTRQGRPRQASRSRQNQREAHFIKRLYQGQLPFPNHAEKQKQFEFVGSAPTRRTKRTRRPQPLT
B5 was tested, and the “PTGS2 mRNA expression relative to the control” value (PTGS2 (COX2)) was “increased”.

B6: FGF18: fibroblast growth factor 18 (protein, listed as Homo sapiens)
chain: MYSAPSACTCLCLHFLLLCFQVQVLVAEENVDFRIHVENQTRARDDVSRKQLRLYQLYSRTSGKHIQVLGRRISARGEDGDKYAQLLVETDTFGSQVRIKGKETEFYLCMNRKGKLVGKPDGTSKECVFIEKVLENNYTALMSAKYSGWYVGFTKKGRPRKGPKTRENQQDVHFMKRYPKGQPELQKPFKYTTVTKRSRRIRPTHPA
For B6, the “PTGS2 mRNA expression relative to the control” value (PTGS2 (COX2)) was “increased”.

B7: FGF22: fibroblast growth factor 22 (protein, listed as Homo sapiens)
chain: MRRRLWLGLAWLLLARAPDAAGTPSASRGPRSYPHLEGDVRWRRLFSSTHFFLRVDPGGRVQGTRWRHGQDSILEIRSVHVGVVVIKAVSSGFYVAMNRRGRLYGSRLYTVDCRFRERIEENGHNTYASQRWRRRGQPMFLALDRRGGPRPGGRTRRYHLSAHFLPVLVS
With B7 the “UCP1 mRNA expression” value (UCP1; [3]) was “not detectably induced”.
